{
  "source": "patent US20150315277A1",
  "about": "(published 2015)",
  "binders": {"B1": {"name": "Notch-1 Fc (rhNotch1-Fc) (Fc fusion)", "chain": "ARGPRCSQPGETCLNGGKCEAANGTEACVCGGAFVGPRCQDPNPCLSTPCKNAGTCHVVDRRGVADYACSCALGFSGPLCLTPLDNACLTNPCRNGGTCDLLTLTEYKCRCPPGWSGKSCQQADPCASNPCANGGQCLPFEASYICHCPPSFHGPTCRQDVNECGQKPGLCRHGGTCHNEVGSYRCVCRATHTGPNCERPYVPCSPSPCQNGGTCRPTGDVTHECACLPGFTGQNCEENIDDCPGNNCKNGGACVDGVNTYNCRCPPEWTGQYCTEDVDECQLMPNACQNGGTCHNTHGGYNCVCVNGWTGEDCSENIDDCASAACFHGATCHDRVASFYCECPHGRTGLLCHLNDACISNPCNEGSNCDTNPVNGKAICTCPSGYTGPACSQDVDECSLGANPCEHAGKCINTLGSFECQCLQGYTGPRCEIDVNECVSNPCQNDATCLDQIGEFQCICMPGYEGVHCEVNTDECASSPCLHNGRCLDKINEFQCECPTGFTGHLCQ"}},
  "target": "recombinant human DLL4 (hDLL4) (human, UniProt Q9NR61 27-524)",
  "sequence (Q9NR61 27-524)": "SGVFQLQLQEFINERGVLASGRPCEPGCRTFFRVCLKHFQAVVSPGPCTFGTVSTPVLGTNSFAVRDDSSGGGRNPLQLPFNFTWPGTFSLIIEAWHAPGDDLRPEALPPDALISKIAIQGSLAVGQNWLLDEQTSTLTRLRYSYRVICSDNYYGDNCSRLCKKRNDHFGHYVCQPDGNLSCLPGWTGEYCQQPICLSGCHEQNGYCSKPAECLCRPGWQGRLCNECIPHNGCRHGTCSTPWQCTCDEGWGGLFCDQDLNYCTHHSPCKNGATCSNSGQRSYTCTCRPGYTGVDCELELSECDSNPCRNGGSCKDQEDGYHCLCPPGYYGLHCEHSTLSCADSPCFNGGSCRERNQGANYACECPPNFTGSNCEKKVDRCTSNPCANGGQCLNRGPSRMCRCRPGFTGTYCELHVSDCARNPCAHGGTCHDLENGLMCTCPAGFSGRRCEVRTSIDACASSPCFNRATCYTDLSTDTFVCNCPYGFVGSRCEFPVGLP",
  "experiment": "Biacore",
  "data": [
    {"binder": "B1", "values": [
      {"measurement": "Kd", "value": 19.9, "unit": "nM"}
    ]}
  ]
}
